This passage reports Kd results from publication doi:10.1101/2022.02.11.480038 (2022).

B1: Human GABARAP (residues 1-116) (natural protein)
chain: MKFVYKEEHPFEKRRSEGEKIRKKYPDRVPVIVEKAPKARIGDLDKKKYLVPSDLTVGQFYFLIRKRIHLRAEDALFFFVNNVIPPTSATMGQLYQEHHEEDFFLYIAYSDESVYG

What all share (assay): ITC
Assay [1] has as its target B1.
In assay [2] the target is Human LC3B (residues 1-120) (human, UniProt Q9GZQ8 1-120).
Assay [3] has as its target Y5F H9A K48A.
Assay [4] concerns the target GABARAP Y5F H9A mutant (human, UniProt O95166 1-116, Y5F | H9A).
Assay [5] deals with TEX264 269-278 S271A,S272A.

Where no end group is shown, it is not given here. [ ]: non-standard residue; d: D form. pS = N[C@@H](COP(=O)(O)O)C(=O)O

Chain of GABARAP Y5F H9A mutant (O95166 1-116 Y5F/H9A): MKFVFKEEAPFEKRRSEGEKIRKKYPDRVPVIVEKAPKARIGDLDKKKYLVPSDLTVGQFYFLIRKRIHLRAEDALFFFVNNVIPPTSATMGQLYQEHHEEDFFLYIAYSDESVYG

In general, Kd refers to the free concentration of one partner at which half of the binding sites on the other are occupied at equilibrium, for simple one-to-one binding. Low readings indicate a tighter complex, high ones a looser complex. Regarding SGEEFEELDL [phosphomimetic TEX264^(S271, 272E) peptide (2SE-LIR)], the dissociation constant Kd in assay [1] amounted to 2.3 µM; in assay [2] it was 5.2 µM.
With SG[pS][pS]FEELDL [phosphorylated TEX264 LIR (residues 269-278 with p-S271,p-S272)], the equilibrium dissociation constant (Kd) was found to be 30 µM in assay [3], 0.52 µM in assay [1], 2.2 µM in assay [4] and 0.37 µM in assay [2].
Regarding B1, in assay [5], the dissociation constant (Kd) came to 72 µM.
For DGDDFEELDL [phosphomimetic TEX264^(S269D, S271D, S272D) peptide (3SD-LIR)], the Kd was 2.2 µM in assay [1] and 6.8 µM in assay [2].
With EGEEFEELDL [phosphomimetic TEX264^(S269E, S271E, S272E) peptide (3SE-LIR)], the equilibrium dissociation constant (Kd) stood at 2.2 µM in assay [1] and 5 µM in assay [2].
On the same counts, the results for SGS[pS]FEELDL [TEX264 peptide (residues 269-278) with S272 phosphorylation (p-S272)] are 2.1 µM and 0.57 µM.
As for SGSSFEELDL [TEX264 LIR peptide (residues 269-278), unphosphorylated wild type], the results for the dissociation constant (Kd) in assay [1] and in assay [2] were 47 µM and 21 µM, respectively.
Taken in the same sequence, the figures for [pS]G[pS][pS]FEELDL [TEX264 peptide (residues 269-278) with p-S269, p-S271, p-S272] were 0.25 µM and 0.25 µM.
With SGDDFEELDL [phosphomimetic TEX264^(S271D, S272D) peptide (2SD-LIR)], the dissociation constant (Kd) in assay [1] turned out to be 2.1 µM; in assay [2], 7.6 µM.
As for [pS]GASGSSFEELDL [TEX264 LIR peptide (residues 266-278) with S266 phosphorylation (p-S266)], the results for the Kd in assay [1] and in assay [2] were 9.3 µM and 22 µM, respectively.
In the case of SGASGSSFEELDL [TEX264 LIR peptide (residues 266-278), unphosphorylated], the Kd stood at 61 µM in assay [1] and 39 µM in assay [2].
